Legend:
[1] = target: VDAC1 on intact mitochondria purified from NSC34 cells (mouse (NSC34 cell line)) (UniProt Q60932); test: competition with SOD1-G93A on intact NSC34 mitochondria, fractionation, immunoblot
[2] = target: human VDAC1, recombinant, C-terminal His-tag, refolded in LDAO (human) (UniProt P21796); test: competition pull-down on VDAC1-coated magnetic beads (30 uM VDAC1, 6.5 uM SOD1-G93A), anti-SOD1 immunoblot
UniProt P21796, sequence (P21796 other isoform, or with tags, fused parts or gaps limits assumed): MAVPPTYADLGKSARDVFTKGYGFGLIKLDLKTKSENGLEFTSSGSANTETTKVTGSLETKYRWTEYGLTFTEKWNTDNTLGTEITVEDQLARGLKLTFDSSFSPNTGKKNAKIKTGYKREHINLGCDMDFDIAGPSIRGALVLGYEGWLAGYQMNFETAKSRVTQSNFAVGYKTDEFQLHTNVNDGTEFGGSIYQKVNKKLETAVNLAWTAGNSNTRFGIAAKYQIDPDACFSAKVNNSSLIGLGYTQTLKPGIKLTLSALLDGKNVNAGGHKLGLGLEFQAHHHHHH

UniProt Q60932, sequence (Q60932 whole entry): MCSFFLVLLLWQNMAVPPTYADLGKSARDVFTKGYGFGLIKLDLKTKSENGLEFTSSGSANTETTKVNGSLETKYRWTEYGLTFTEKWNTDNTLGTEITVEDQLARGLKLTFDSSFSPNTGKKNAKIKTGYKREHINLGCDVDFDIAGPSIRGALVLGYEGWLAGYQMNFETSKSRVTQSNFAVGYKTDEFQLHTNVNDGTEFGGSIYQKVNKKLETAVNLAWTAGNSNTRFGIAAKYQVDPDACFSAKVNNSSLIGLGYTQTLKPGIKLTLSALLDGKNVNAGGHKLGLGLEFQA

B1: synthetic peptide NHK1 (peptide)
peptide: IAAQLLAYYFT
A percent decrease of SOD1-G93A bound to mitochondria at 60 µM NHK1 [1] of 90%, a percent reduction of SOD1-G93A bound to VDAC1 at 10 µM NHK1 [2] of 40% and a percent reduction of SOD1-G93A bound to VDAC1 at 25 µM NHK1 [2] of 80% were found for B1 in this work.
